Assay results from publication PMC4618232 (Nature chemical biology, 2015).

B1: mouse XXYLT1 (Xylosideα1–3 Xylosyltransferase), soluble domain S43–D392 after limited proteolysis with trypsin (enzyme, UniProt Q3U4G3 93-391, looked up)
chain: VVPVDYHLLMMFTKAEHNAPLQAKARVALSSLLRLAKFEAHEVLNLHFVSEEASREVAKALLRELLPPAAGFKCKVIFHDVAVLTDKLFPVVEAMQKYFSAGSGTYYSDSIFFLSVAMHQIMPKEIPRIIQLDLDLKYKTNIRELFEEFDNFLPGAVIGIAREMQPVYRHTFWQFRHENPKTRVGDPPPEGLPGFNSGVMLLNLEAMRQSPLYSHLLEPSWVQQLADKYHFRGHLGDQDFFTMIGMEHPELFHVLDCTWNRQLCTWWRDHGYSDVFQAYFRCEGHVKIYHGNCNTPIPE

Key:
crystal structure = molecular target: the molecule itself; test: crystal structure
[1] = molecular target: B1; test: SEC
[2] = molecular target: B1; test: crystal structure

Q: For B1, which “stoichiometry N” value (crystal structure) is on record?
A: 2

Q: Does VDGDQCESNPCLNGGSCKDDINSYECWCPFGFEGKNCEL (domain or fragment, Xyl-Glc disaccharide on Ser53) [human factor IX (hFA9) EGF repeat modified with the Xyl-Glc disaccharide] bind [1]?
A: binds

Q: Does VDGDQCESNPCLNGGSCKDDINSYECWCPFGFEGKNCEL (domain or fragment, Xyl-Xyl-Glc trisaccharide on Ser53) [human factor IX (hFA9) EGF repeat with the Xyl-Xyl-Glc trisaccharide (product of XXYLT1)] bind [2]?
A: binds
